Laboratory results published in publication PMC4143955.

Target: SCMV-BJ VPg-YFP^N (BiFC fusion, pUC-SPYNE) (Sugarcane mosaic virus, Beijing isolate (SCMV-BJ))
Assay: split reporter (BiFC, NanoBiT); BiFC: YFP^N and YFP^C fusions co-transfected into maize protoplasts; YFP fluorescence captured at 12-18 h post transfection by confocal microscopy

Question: For “YFP^C-ZmElc (BiFC fusion, pGD-YFP^C-ZmELC) (natural protein)”, which percentage of protoplasts exhibiting fluorescence signal is on record?
Answer: Its percentage of protoplasts exhibiting fluorescence signal is 64%.
